Results reported in PMC10213376 (Redox Biology, 2023).

Target: the molecule itself
Test: crystal structure

B1: Human catalase (CAT) (enzyme)
chain: MADSRDPASDQMQHWKEQRAAQKADVLTTGAGNPVGDKLNVITVGPRGPLLVQDVVFTDEMAHFDRERIPERVVHAKGAGAFGYFEVTHDITKYSKAKVFEHIGKKTPIAVRFSTVAGESGSADTVRDPRGFAVKFYTEDGNWDLVGNNTPIFFIRDPILFPSFIHSQKRNPQTHLKDPDMVWDFWSLRPESLHQVSFLFSDRGIPDGHRHMNGYGSHTFKLVNANGEAVYCKFHYKTDQGIKNLSVEDAARLSQEDPDYGIRDLFNAIATGKYPSWTFYIQVMTFNQAETFPFNPFDLTKVWPHKDYPLIPVGKLVLNRNPVNYFAEVEQIAFDPSNMPPGIEASPDKMLQGRLFAYPDTHRHRLGPNYLHIPVNCPYRARVANYQRDGPMCMQDNQGGAPNYYPNSFGAPEQQPSALEHSIQYSGEVRRFNTANDDNVTQVRAFYVNVLNEEQRKRLCENIAGHLKDAQIFIQKKAVKNFTEVHPDYGSHIQALLDKYNAEKPKNAIHTFVQSGSHLAAREKANL
B1 was tested, and the “stoichiometry N” value was 4.
